Source: PMC7616425 (2024)

Legend:
[1] = target: Alexa647-labeled RhoGDI1 L56A (bovine, UniProt P19803 1-204, L56A, Alexa647 acceptor (site not stated)); assay: FRET
[2] = target: Alexa647-labeled RhoGDI1 L56V (bovine, UniProt P19803 1-204, L56V, Alexa647 acceptor (site not stated)); assay: FRET

B1: Cy3-labeled, prenylated Cdc42 (natural protein)
chain: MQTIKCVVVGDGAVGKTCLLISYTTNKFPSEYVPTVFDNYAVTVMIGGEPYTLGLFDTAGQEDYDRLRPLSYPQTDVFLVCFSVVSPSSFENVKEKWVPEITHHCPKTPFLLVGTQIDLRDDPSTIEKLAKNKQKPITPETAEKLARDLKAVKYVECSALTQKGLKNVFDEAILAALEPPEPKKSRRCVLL
modifications: prenylated (residue not stated); Cy3 donor (site not stated)
Q: With B1 as the binder, how does the koff [1] read?
A: 0.08 s⁻¹

Q: And the koff [2]?
A: 0.003 s⁻¹
